# Laboratory results as given in the RNAGym collection of RNA variant scans (doi:10.1073/pnas.2313332121).
# Fewer inactive variants are shown than the library holds.
# B1: TPR 5TU (parent)
# chain: GGAUCUUCUCGAUCUAACAAAAAAGACAAAUCUGCCACAAAGCUUGAGAGCAUCUUCGGAUGCAGAGGCGGCAGCCUUCGGUGGCGCGAUAGCGCCAACGUUCUCAACUAUGACACGCAAAACGCGUGCUCCGUUGAAUGGAGUUUAUCAUG
# Variants of: B1
# Experiment: polymerase ribozyme fitness, log enrichment relative to wild type (log ratio); higher = more active; in vitro selection for triplet polymerase activity
# Procedure, shortened: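 Genotype fitness is the logarithm of its enrichment divided by wild-type enrichment, using inverse-variance-weighted averages of replicates. That logarithm is base 2. Enrichment was measured by Illumina sequencing of input and output libraries from one triplicate in vitro selection round, with frozen incubation at −7 °C, on PCR-built, transcribed mutant libraries of each subunit of a heterodimeric triplet polymerase ribozyme, retaining genotypes with ≥10 input reads and ≥1 read per output.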
row,Variant,polymerase ribozyme fitness (log ratio)
1,G11U U55G A60G G67A C93U,≤ -4.2
2,A12G A21U C27A G48C A49C C51A G84A C129A,≤ -4.2
3,A12C A19C C99U,-1.52
4,G11C C87U,-2.7
5,A12G A30U U146G,-3.66
6,A12G A40U A60C G88U G117C,≤ -4.2
7,A12C A142C,-1.32
8,G11A C32U G71A A137G A138G,≤ -4.2
9,G11C C36U U78C C85G A120C C123A G124A U151C,≤ -4.2
10,G11A C14G A30U U44A U45A G92U,≤ -4.2
11,G11A G92U,-1.16
12,A12C C96U,-0.42
13,G11C C116G,-0.794
14,A12C C14G A26U A49C G59A C131A,≤ -4.2
15,G11A A26C G68U C75U A147C,≤ -4.2
16,A12C A16G U55A,-2.45
17,G11A A26C U90G,≤ -4.2
18,G11C A47C U55A G81A C87G A120U U144A,≤ -4.2
19,G11A A91G,-3.81
20,A12C A24G C85U C95U A120G,≤ -4.2
21,G11U C54A,-2.47
22,G11U U90A A119U G133C,≤ -4.2
23,A12C A29U G68C A73C G80U G84C,≤ -4.2
24,A12G,0.116

row,Variant,polymerase ribozyme fitness (log ratio)
1,A12C,0.0783
2,G11C U31C G59C C76A G84U U104A A107U,≤ -4.2
3,A12C C85U C116A A122G G143U,≤ -4.2
4,A12C A16G A41C A121U,-1.69
5,G11U A73U G81A G83C G86U G126C G136C,≤ -4.2
6,G11U A26U U61G G84U C85A C96A U139A,≤ -4.2
7,G11U A29C A89C C125U,-4.16
8,G11A A24G A60U U78C G92A G100A,≤ -4.2
9,G11A A40G A49C U61A G81A C125A,≤ -4.2
10,G11U C87G,-4.09
11,G11C A17U C79G G86U U101G C125U G152A,≤ -4.2
12,A12G A98U,-0.71
13,A12C A21U A64C G84U U127C A138U,≤ -4.2
14,A12C U139A,≤ -4.2
15,A12G A49C G74A C96U U102G G112U C125U,≤ -4.2
16,A12C G86C A106U A115U U144A,≤ -4.2
17,G11C C63U C79U G86C,≤ -4.2
18,G11U A40C G70C C103G,≤ -4.2
19,A12G A41U C85U U101G C105A G140U G152U,-4.09
20,G11C C105U C118G,-1.92
21,G11A G59A,-1.71
22,A12G C14G A17G C75U A91G C105U A106G A121U A137U,≤ -4.2
23,G11C C18G A23C G48A G88U C93G U144A,≤ -4.2
24,A12C A16U U61A C125A,-3.45

row,Variant,polymerase ribozyme fitness (log ratio)
1,A12C U15G U56A C75U G86U C129A G133U,≤ -4.2
2,A12C C85G A122C,-2.14
3,A12C G34U G50U G88C A98U C125A,-4.18
4,G11U U44A G92C,≤ -4.2
5,A12C A20U U61A G92U C131A,≤ -4.2
6,A12C U55G A97G C105U,-3.12
7,G11A G48C G92U,-0.981
8,G11C G58A,-1.65
9,A12C G81A G92C C99U G124C G133U,≤ -4.2
10,G11A C69U C87U G92C A150G,-2.89
11,G11A C43U C54U A106U C108G G112A,≤ -4.2
12,G11A C54U G83A A147U,-0.578
13,G11U C27U A29C C75U G83C G126U,≤ -4.2
14,G11U C76A G83U C85A A137G,≤ -4.2
15,G11A U44A A52G C75U C76U G92C C149G,≤ -4.2
16,G11A C114G G124U,-4.03
17,A12G A19C A20G A22C A28G A30G C57A G59A G84A U101G A115U G136U,≤ -4.2
18,G11U C38A C125U,-2.71
19,A12G C38U C99U,-0.24
20,A12C C57A G83U G136C,-3.78
21,A12C G71U C93U A97G C103U C131G G141C,≤ -4.2
22,G11U A66C C76U U90G U102G U148G,≤ -4.2
23,G11C G83A G141U,-0.379
24,A12C A60U C75G G88C A91G U109G,≤ -4.2

row,Variant,polymerase ribozyme fitness (log ratio)
1,A12G A47C G58C C69A C93A U144C,-3.84
2,G11U G86C,-3.55
3,G11U A23U,≤ -4.2
4,A12C A66G A91U,≤ -4.2
5,G11U U53A G65A A73U G83C U144A,≤ -4.2
6,A12C G94U A150G,-2.61
7,G11C A37C U55G C93A C99G G124U C149U,≤ -4.2
8,G11U G34A G50A C85U U90C G143A,≤ -4.2
9,G11U C54U U77G G92U U145A A147U,≤ -4.2
10,A12G A24U U53A U82G G84A A89U,-3.13
11,G11A C85G G94U,-0.903
12,G11A A91G A138U,≤ -4.2
13,G11C U15G A20C A28U C85U G140U U145G,≤ -4.2
14,G11C A20U G86C C99G G136C U145G A147C,≤ -4.2
15,G11U A52U,-2.33
16,A12G C54A G86C C87U G126A,≤ -4.2
17,A12G A17G A19G U53A U55A G81U G84U G117U,-4.04
18,A12G A40C A41G U56A U82G C99A A113C C125U,≤ -4.2
19,A12G A23U C35U C76A C93U A97U C116A,-3.12
20,A12C C93U,-2.17
21,G11C G50U G84U A97G,-3.09
22,G11A A52G U53A C54A G84U G128U C132U,-4.13
23,A12C A52G,-0.179
24,A12C C18G A40U C123U G136U,-3.09

row,Variant,polymerase ribozyme fitness (log ratio)
1,G11A G50U U82C G86A C116A,-3.47
2,G11A C54A,-2.47
3,G11A A41U A52U U55A C118U,≤ -4.2
4,A12G C51G A52C C63G,≤ -4.2
5,A12C A30G,-3.77
6,A12C A20G G25A A30G U44A A89G U145G,≤ -4.2
7,A12G C54U C69G U145G,-4.06
8,G11A C38U G59C A64U G81A C93U G94C,≤ -4.2
9,A12G C14G A22G U61A G71A C99U C123U A142G,≤ -4.2
10,G11C A41C A66C C85U A122U G140U,≤ -4.2
11,A12C A29C C85A G133A,≤ -4.2
12,G11C A28G U56A U77A C87A A122U,≤ -4.2
13,G11U A26U G83A,-4.06
14,A12C A52C C54U U145A,-3.53
15,G11A U15G G46A A47G A60G G92C C96A,≤ -4.2
16,G11A A28U C32U A47U C79A,≤ -4.2
17,A12G C35A C95U A106U,≤ -4.2
18,A12C A39U G59A A91U C93U A150C,≤ -4.2
19,G11C C114U U139A,≤ -4.2
20,G11U U56A A64G C118U A121U,≤ -4.2
21,A12C C87U C114U U139G,-3.08
22,A12C A17U U53A C96A U139G,-3.83
23,A12G A19U A41U G50C C85U G133A U148C,≤ -4.2
24,G11U A52G A60G G83U,-3.33

row,Variant,polymerase ribozyme fitness (log ratio)
1,G11A C27A A37C G59C G83A G86A G92A U102G G117U,≤ -4.2
2,G11C G46C G59C G92U,-3.55
3,A12C C35U G86A C93U,-1.43
4,A12G A16U A26U G83U C87G U145C,≤ -4.2
5,A12G A37U U55G A113C,≤ -4.2
6,A12C A20U U53C A89G,-3.96
7,G11U U13A A17U A26U A41C U45A C87A C108U A142C A147U,≤ -4.2
8,G11U G68U A120U C125U,≤ -4.2
9,A12C U44A U56G G83U A89U C95A A98C C103G A107G,≤ -4.2
10,A12C U61G C75G C96U C131U G140U G141A,≤ -4.2
11,G11C G42U U55G C76U,≤ -4.2
12,A12C G58C G94C,-1.43
13,A12C C38A C93U,-1.62
14,G11A C51U U55A U56G A142C,-3.56
15,G11A A39U A40C G100C,≤ -4.2
16,A12G A24U G34A G92U G126C,-1.83
17,G11A U15G A17C A20U U33C A64G C93G A110G A147U,≤ -4.2
18,A12G A60G C93U,-0.294
19,A12C C125U,-0.492
20,A12G A20G A23U A89G C96U U111C G124C U130G G133C G140A,≤ -4.2
21,A12G A23C A47C A60G C93U,≤ -4.2
22,A12C U13G C18G A21G U101A A110U A120U G136C G140U G152U,≤ -4.2
23,A12G A16G U44G G81C G84A C95U U144A U146C,≤ -4.2
24,A12G A19U U45A U53A G88U,≤ -4.2

row,Variant,polymerase ribozyme fitness (log ratio)
1,A12G C54G C116U,-0.574
2,G11C A40C G42A G58U A60U C85G A89U C93G,≤ -4.2
3,G11A A60G A106G,-0.626
4,A12C C99A A119G U145C,-1.83
5,A12G C14U,-0.925
6,A12G A24G C35A U44G G50C G71C G124A,≤ -4.2
7,A12C C38G C85A C116A A120G,-1.83
8,A12C C85G,-2.59
9,G11U C57G A119U A121G C149U,-2.88
10,G11U A23U C57U G86A,≤ -4.2
11,G11A C57A,-1.44
12,G11A U55A U101G,-1.01
13,G11U G46A C85U,-2.44
14,G11C C36U C57A G100A,≤ -4.2
15,G11A C14G A66U C87A A106U G143C,≤ -4.2
16,A12G C14G C18U U31A U56G U101A,-2.32
17,A12G C27U A40U A73G C87G C95A G124U G136A,≤ -4.2
18,G11U A22G C54U G65A C76U A98U C103G U144G,≤ -4.2
19,A12C U33A G48C U127G G140C,≤ -4.2
20,G11A A24G A41U C51A G59A G80A G84U U90A,≤ -4.2
21,G11C A20U C36U A60G C93G,≤ -4.2
22,G11C G48A A52G C96U A113G C118U G141U A142C U151G,≤ -4.2
23,A12C A20G A37C C51U G58C A91C,≤ -4.2
